Laboratory results published in patent publication US7238786B2, “Monoclonal antibody cPAM4” (Immunomedics, Inc., priority 2002, dated 2007).

System: PAM4 antigen
Assay: Competition with ^131I-mPAM4 binding to the antigen (FIG. 3)
Details: competing with ^131I-mPAM4 binding to the antigen
From the text: A chimeric antibody is a recombinant protein that contains the variable domains including the complementarity determining regions (CDRs) of an antibody derived from one species while the constant domains of the antibody molecule is derived from those of a human antibody.

binding activity compared to murine PAM4: comparable binding activity
B1: cPAM4: chimeric PAM4: murine PAM4 variable domains with human light and heavy chain constant regions (antibody, V domains shown)
VL: DIQLTQSPAIMSASPGEKVTMTCSASSSVSSSYLYWYQQKPGSSPKLWIYSTSNLASGVPARFSGSGSGTSYSLTISSMEAEDAASYFCHQWNRYPYTFGGGTKLEIKR
VH: QVQLQESGPELVKPGASVKMSCKASGYTFPSYVLHWVKQKPGQGLEWIGYINPYNDGTQYNEKFKGKATLTSDKSSSTAYMELSRLTSEDSAVYYCARGFGGSYGFAYWGQGTLITVSA
